According to publication PMC5974136:

Molecular target: Tyr24 (position 24, …)
Test: NMR
Conditions: 10 C; no added salt (NaCl, KCl absent); 10 mM phosphate only; 10 mM phosphate buffer (initial pH 7), 0.1 mM DSS; soluble, predominantly disordered repetitive domain; about 1.5-2.2 mM protein

B1: MaSp1 repetitive domain 15-mer (15 contiguous copies of the consensus repeat of major ampullate spidroin 1) (Nephila clavipes (Trichonephila clavipes); … (protein)
chain: GRGGLGGQGAGAAAAAGGAGQGGYGGLGSQGTSGRGGLGGQGAGAAAAAGGAGQGGYGGLGSQGTSGRGGLGGQGAGAAAAAGGAGQGGYGGLGSQGTSGRGGLGGQGAGAAAAAGGAGQGGYGGLGSQGTSGRGGLGGQGAGAAAAAGGAGQGGYGGLGSQGTSGRGGLGGQGAGAAAAAGGAGQGGYGGLGSQGTSGRGGLGGQGAGAAAAAGGAGQGGYGGLGSQGTSGRGGLGGQGAGAAAAAGGAGQGGYGGLGSQGTSGRGGLGGQGAGAAAAAGGAGQGGYGGLGSQGTSGRGGLGGQGAGAAAAAGGAGQGGYGGLGSQGTSGRGGLGGQGAGAAAAAGGAGQGGYGGLGSQGTSGRGGLGGQGAGAAAAAGGAGQGGYGGLGSQGTSGRGGLGGQGAGAAAAAGGAGQGGYGGLGSQGTSGRGGLGGQGAGAAAAAGGAGQGGYGGLGSQGTSGRGGLGGQGAGAAAAAGGAGQGGYGGLGSQGTS
- pKa: 10.25 ± 0.02
